Measurements published in PMC6951436.

Experiments:
[1] = molecular target: pyruvate kinase liver isoform (PKL) (UniProt P12928); assay: native PAGE of oligomeric state; conditions: reference: non-phosphorylated PKL (WT); sites S113
[2] = molecular target: pyruvate kinase liver isoform (PKL) (UniProt P12928); assay: size-exclusion chromatography of oligomeric state; conditions: reference: non-phosphorylated PKL (WT); sites S113

Chain of pyruvate kinase liver isoform (PKL) (from UniProt P12928-2) PKL pS113 proteoform (P12928 whole entry, looked up, change not shown, canonical isoform): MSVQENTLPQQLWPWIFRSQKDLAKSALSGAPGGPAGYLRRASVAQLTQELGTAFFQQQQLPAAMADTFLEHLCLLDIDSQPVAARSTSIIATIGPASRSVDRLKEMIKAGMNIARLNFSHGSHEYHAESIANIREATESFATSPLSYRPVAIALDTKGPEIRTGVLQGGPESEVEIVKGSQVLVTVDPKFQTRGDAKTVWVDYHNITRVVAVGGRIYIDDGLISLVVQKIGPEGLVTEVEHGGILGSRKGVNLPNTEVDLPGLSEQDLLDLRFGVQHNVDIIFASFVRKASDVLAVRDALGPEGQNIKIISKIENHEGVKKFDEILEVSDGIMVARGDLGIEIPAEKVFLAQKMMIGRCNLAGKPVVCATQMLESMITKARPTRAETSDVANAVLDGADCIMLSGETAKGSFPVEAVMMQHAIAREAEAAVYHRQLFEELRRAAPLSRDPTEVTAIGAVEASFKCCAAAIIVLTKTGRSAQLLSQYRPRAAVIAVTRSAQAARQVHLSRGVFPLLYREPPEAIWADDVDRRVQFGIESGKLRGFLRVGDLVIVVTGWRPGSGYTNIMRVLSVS
Chain of pyruvate kinase liver isoform (PKL) (UniProt P12928) (P12928 whole entry, looked up, canonical isoform): as the sequence (P12928 whole entry, looked up, change not shown, canonical isoform) above

binding against the reference [1]: same
binding against the reference [2]: same
Substance: pyruvate kinase liver isoform (PKL) (from UniProt P12928-2) PKL pS113 proteoform
